Earlier results in PMC4409539 (Cancer gene therapy, 2015).

B1: yeast cytosine deaminase (protein, UniProt Q12178 1-158, looked up)
Cytosine deaminase: MVTGGMASKWDQKGMDIAYEEAALGYKEGGVPIGGCLINNKDGSVLGRGHNMRFQKGSATLHGEISTLENCGRLEGKVYKDTTLYTTLSPCDMCTGAIIMYGIPRCVVGENVNFKSKGEKYLQTRGHEVVVVDDERCKKIMKQFIDERPQDWFEDIGE

Columns and labels:
pancreatic tumor cells = pancreatic tumor cells infected at 25 pfu/cell with bCD
[1] = yCD versus bCD

Row | Molecule | 5-FC conversion (pancreatic tumor cells) | Km for 5-FC, fold lower than bCD [1] | thermal stability compared with bCD [1]
1 | bacterial cytosine deaminase [bCD] | 0.2 to 0.7 pmol/min/mg | – | –
2 | B1 | – | 22 fold | more thermolabile than bCD
